Patent US20060009452A1, “Therapeutic targeting of PARC/CCL18 and its signaling in pulmonary fibrosis” (priority 2004, published 2006)
Entries after “also recorded” stand apart in the source; their conditions may differ.

Tests used:
Format in all cases: cell-based, human
[1] = system: lung fibroblasts; assay: Western blotting of fibroblast culture supernatants for collagen type I / α1(I)
Description: Collagen Production Assays. Collagen was quantified as described elsewhere (Atamas S P et al.). Briefly, fibroblasts were cultured with β-aminopropionitrile (Sigma) to prevent collagen cross-linking, and Western blotting assays for collagen were performed using rabbit affinity purified anti-collagen type I antibody (Rockland, Gilbertsville, Pa.). Before electrophoresis, samples were reduced and denatured by boiling in Laemmli buffer containing β-mercaptoethanol. Human purified collagen type I (Southern Biotech, Birmingham, Ala.) was used as a positive control in these assays. The identity of collagen bands was confirmed by sensitivity to pepsin and collagenase (both from Sigma) digestion, as described (Atamas S P et al.). Under these conditions, pro-collagen appears as a single or double band around 175 kDa (Gaidarova S et al., Stefanovic B et al.). Images were collected using a Storm densitometer and band densities analyzed with ImageQuant software (Molecular Dynamics, Sunnyvale, Calif.).
Western blotting assays for collagen were performed using rabbit affinity purified anti-collagen type I antibody (Rockland, Gilbertsville, Pa.). Before electrophoresis, samples were reduced and denatured by boiling in Laemmli buffer containing β-mercaptoethanol. Human purified collagen type I (Southern Biotech, Birmingham, Ala.) was used as a positive control in these assays.
Collagen was quantified by Western blotting and the identity of collagen bands was confirmed by sensitivity to pepsin and collagenase digestion as described elsewhere in Atamas et al. (Am. J. Respir. Cell. Mol., 29:743-749 (2003)). In these assays, pro-collagen appears as a single or double band with a molecular weight of approximately 175 kDa (4,27,28).

[2] = system: α2(I) collagen mRNA; assay: Real-time PCR for α2(I) collagen mRNA relative to 18S rRNA
[3] = system: TGF-β1 mRNA; assay: Real-time PCR for TGF-β mRNA; conditions: LF1 and LF4, 300 ng/ml rhPARC
Description: Real-time PCR Quantification of Steady-State mRNA Levels. Total RNA was purified from fibroblast cultures using Trizol reagent (Invitrogen, Carlsbad, Calif.) following the manufacturer's recommendations. First-strand cDNA was synthesized in a 20-μl reaction mixture containing 1 μg of total RNA, 50 mM Tris HCl (pH 8.3), 75 mM KCl, 3 mM MgCl2, 0.5 mM of each dNTP, 1 μM of random hexamer primers, and 400 units of Moloney murine leukemia virus RT (Invitrogen). The reaction mixture was incubated at 37° C. for 60 minutes, then heated at 95° C. for 5 minutes. Real-time PCR was performed on a LightCycler system (Roche, Indianapolis, Ind.). The primers, PCR protocol, and product quantification for the internal control 18S ribosomal RNA were exactly as reported previously (Schmittgen T D et al.). All other primers and hybridization probes were designed and prepared by TIB Molbiol (Adelphia, N.J.). […] The following PCR conditions were used: activation at 95° C. for 10 min, followed by 35 cycles of denaturation at 95° C. for 3 s, primer annealing at 50° C. for 5 s, fluorescence readout (F12/F11) at 50° C., and extension at 72° C. for 15 s. Fold difference in gene expression relative to 18S rRNA between treated and untreated cultures was calculated using the 2-ΔΔCT method (Livak K J et al.).

[4] = system: ERK1/2; assay: Immunoblotting for phosphorylation of ERK1/2; conditions: lung fibroblasts LF1/LF2 activated with rhPARC
[5] = system: Sp1; assay: EMSA of nuclear lysates with Sp1-specific probe; conditions: consensus and collagen α2(I) promoter-specific probes
Description: NushifTM kits for EMSA and supershift assays and reagents for preparation of nuclear extracts were purchased from Active Motif (Carlsbad, Calif.); the procedures were performed according to manufacturer's recommendations, including end-labeling of the specific probes with [γ-^32P]ATP. In addition to the [γ-^32P]ATP-labeled Sp1 consensus probe ([NT] ID NO:5), wild-type and mutant ([NT] ID NO:6) oligo competitors, and an Sp1-specific antibody from the kit, an oligonucleotide representing the Sp1-binding region in the α2(I) collagen promoter ([NT] ID NO:7) was used as a probe (after end-labeling with [γ-^32P]ATP) and as a cold competitor. […] Nuclear extracts were adjusted for total protein content to ensure equal loading. Gels were exposed to a Phosphorimager screen and scanned using a Storm Phosphorimager (Molecular Dynamics); band densities were analyzed with ImageQuant software.

[6] = system: Sp1-sensitive promoter; assay: Luciferase assay of Sp1-sensitive promoter (pGAGC6) in transfected lung fibroblasts; conditions: pGAGC6-transfected primary lung fibroblasts
Description: FIG. 16. Stimulation with PARC increases Sp1 promoter-stimulating activity in cultured primary lung fibroblasts. Luciferase activity was measured in a chemiluminescence-based assay in cell lysates from the following fibroblast cultures: mock-transfected non-stimulated (Medium), pGAM-transfected non-stimulated (pGAM Ctrl), pGAM-transfected PARC-stimulated (PGAM PARC), pGAGC6-transfected non-stimulated (pGAGC6 Ctrl), and pGAGC6-transfected PARC-stimulated (pGAGC6 PARC).

B1: rhPARC: Recombinant human pulmonary and activation-regulated chemokine (CC chemokine CCL18), purchased from R&D Systems and Cell Sciences (protein)
chain: AQVGTNKELCCLVYTSWQIPQKFIVDYSETSPQCPKPGVILLTKRGRQICADPNKKWVQKYISDLKLNA
concentration causing detectable stimulation of collagen production [1]: below 300 ng/ml
collagen production, dose-response ([1]; LF1 and LF4, 30 ng/ml and 300 ng/ml rhPARC): significant increase in collagen production
increase in collagen production over control non-treated cells ([1]; LF1 and LF4, 3, 6 and 12 h of activation): ≤ 1.2±0.2 fold
combined density of procollagen bands, fold higher than non-stimulated control ([1]; LF2 cells, 300 ng/ml rhPARC, 48 h): 4.2 fold
increase in densities of the collagen bands relative to the control culture ([1]; LF4, 300 ng/ml rhPARC, 24 h): 4.4
increase in densities of the collagen bands relative to the control culture ([1]; LF4, 300 ng/ml rhPARC, 48 h): 3.2
increase in collagen production, densitometry at shorter non-saturating exposure ([1]; LF4, 300 ng/ml rhPARC, 72 h): 3.4 fold
increase in densities of the collagen bands relative to the control culture ([1]; LF4, 300 ng/ml rhPARC, 72 h, bands saturated): 1.3
combined density of procollagen bands, fold higher than non-stimulated control ([1]; LF4 cells, 100 ng/ml rhPARC, 48 h): 3.6 fold
steady-state collagen α2(I) mRNA level versus control ([2]; LF1 and LF2, 300 ng/ml rhPARC, 3 and 6 h): transiently increased; also recorded: higher than in control cells
higher concentration of collagen mRNA in treated samples versus control ([2]; lung fibroblasts, 300 ng/ml rhPARC, 6 h): approximately 4 fold
steady-state levels of TGF-β mRNAs, treated versus control [3]: no difference in TGF-β1 mRNA levels
phosphorylation of ERK1/2 [4]: increased; also recorded: activated
DNA binding by Sp1 (EMSA) [5]: three-fold increase; also recorded: activates transcription factor Sp1
Sp1 promoter-stimulating activity (luciferase) [6]: leads to activation of the Sp1-sensitive promoter
